B1: H2-Kb / F5 (parent)
chain 1: GDSVTQTEGLVTLTEGLPVMLNCTYQSTYSPFLFWYVQHLNEAPKLLLKSFTDNKRPEHQGFHATLHKSSSSFHLQKSSAQLSDSALYYCALSPSNMGYKLTFGTGTSLLVDP
chain 2: EAAVTQSPRNKVAVTGGKVTLSCNQTNNHNNMYWYRQDTGHGLRLIHYSYGAGSTEKGDIPDGYKASRPSQENFSLILELATPSQTSVYFCASGDASEQYFGPGTRLTVL
chain 3: not shown
chain 4: IQKTPQIQVYSRHPPENGKPNILNCYVTQFHPPHIEIQMLKNGKKIPKVEMSDMSFSKDWSFYILAHTEFTPTETDTYACRVKHDSMAEPKTVYWDRDM
chain 5: SIINFEKL
B2: H2-Kb / B5 (parent)
chain 1: TQTVSQSDAHVTVFEGDSVELRCNYSYGGSIYLSWYIQHHGHGLQFLLKYYSGNPVVQGVNGFEAEFSKSDSSFHLRKASVHWSDSAVYFCAVSLYQGGRALIFGTGTTVSVSP
chain 2: EAGVTQSPRYAVLQEGQAVSFWCDPISGHDTLYWYQQPRDQGPQLLVYFRDEAVIDNSQLPSDRFSAVRPKGTNSTLKIQSAKQGDTATYLCASSFAGGARAEQFFGPGTRLTVL
chain 3: not shown
chain 4: B1 chain 4
chain 5: SIINFEKL

Variants of: B1
Assay: % of reporter cells activated (NFAT-GFP), raw
Details: with F5; scale: % of reporter cells activated
Note: test concentration or dose not given here.

Ratio to parent, by site and new letter:
chain 5 I2: T 1.03 | Q 0.472 | C 0.779 | V 1.23 | L 3.22 | S 0.483 | G 0.989 | P 0.419 | W 1.57 | K 0.397 | M 1.58 | E 0.558 | Y 0.393 | N 0.903 | A 0.603

Variants of: B2
Assay: % of reporter cells activated (NFAT-GFP), raw
Details: with B5; scale: % of reporter cells activated

Ratio to parent of substitutions, site by site:
chain 5 N4: Y 1 | H 0.556 | V 0.389 | S 0.597 | K 1.07 | G 1.33 | T 0.514 | C 0.625 | D 1.08 | P 0.917 | W 0.931 | F 8.53 | A 0.931 | Q 1.71 | E 0.778 | R 0.556 | I 0.5 | M 0.75 | L 1.08
chain 5 K7: P 0.889 | R 0.833 | Y 1.38 | Q 1.01 | S 0.944 | W 1.19 | V 1.19 | H 1.29 | L 1.28 | T 1.17 | M 1.57 | G 0.917 | I 1.4 | E 1.31 | D 1.11 | A 1.19 | F 0.806 | N 1.21 | C 1.14
chain 5 S1: D 1.54 | W 1.65 | P 0.917 | C 0.875 | K 0.764 | F 1.22 | N 1.24 | L 0.764 | A 1.43 | E 0.889 | G 0.889 | Q 1.08 | T 0.986 | I 1.14 | H 1.11 | Y 0.75 | V 1.39 | M 1.22 | R 1.14
chain 5 I2: M 1.58 | F 0.875 | H 0.792 | P 1.12 | N 1.36 | Y 1.01 | A 0.736 | T 0.542 | L 1.17 | R 0.819 | E 1.1 | K 0.889 | V 0.375 | D 1.18 | W 1.51 | C 0.694 | G 1.13 | S 0.694 | Q 1.11
chain 5 I3: G 0.917 | Y 0.917 | N 0.917 | W 7.01 | R 1.03 | A 1.01 | L 0.847 | F 0.958 | H 1.01 | Q 0.792 | P 1.08 | K 1.11 | D 1 | M 0.972 | S 1.54 | E 1.17 | V 1.1 | C 0.792 | T 0.764
chain 5 E6: Q 1.24 | D 1 | N 1.12 | G 1.01 | V 0.75 | W 1.12 | K 1.17 | T 1.17 | I 1.36 | R 0.806 | A 0.708 | F 1.54 | H 1.03 | P 1.11 | S 1.03 | L 1.4 | C 1.38 | Y 1.44 | M 0.903
chain 5 F5: S 0.806 | P 1.04 | N 1.36 | Y 1.29 | Q 1.14 | T 0.653 | C 1.92 | G 0.569 | D 1.28 | W 0.694 | V 3.75 | I 0.597 | R 1 | K 1.06 | L 0.958 | E 0.472 | M 1.01 | H 0.556 | A 0.611
chain 5 L8: D 1.33 | E 1.42 | A 1.54 | H 1.21 | W 1.47 | V 1.35 | K 0.903 | F 1.53 | R 1.78 | P 1.15 | N 1.49 | I 1.06 | C 1.4 | M 1.61 | G 0.972 | S 1.19 | Y 0.958 | Q 1.86 | T 1.04

Source: paper PMC11480844
